# Source: the supplement of paper PMC12042874
# ± gives the uncertainty stated by the source.
# Assay: amyloid nucleation score (Sup35N fusion, yeast selection) (log enrichment); library NNK1; higher = more nucleation; inactive = no reads after selection
# Outline: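 For the nucleation score, DiMSum gave the log enrichment of output over input reads, centred on the mode score of non-aggregating sequences. Psi-negative yeast expressing Sup35N fused to peptides of 20 random codons were induced with 100 μM copper sulfate for 24 hours and grown 7 days at 30°C on medium lacking adenine and uracil. Input and output plasmid inserts were Illumina-sequenced, and sequences with under 100 input reads were excluded.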
row,Substance,amyloid nucleation score
1,LFIRGMIDDKVSITNYVC,-0.546 ± 0.31
2,QIHFFAFRFIGMVYFPRIGD,0.318 ± 0.79
3,NRYIRELGRKTYVLRKEFRG,-0.274 ± 1.2
4,SNNYLLCGIDGEVL,1.07 ± 0.66
5,IYEMVGLTNVEFWYTKKYCS,-0.003 ± 0.18
6,TCNGCGGHRMFWYK,0.099 ± 0.55
7,RGDLSYYCRSNN,-0.5 ± 1.4
8,SEYLASMAVTRFLGIGWMNS,0.548 ± 0.57
9,TSGIYRRSDFLERHIS,0.993 ± 0.71
10,FKLAIVSIFCINSWYNESLR,5.866 ± 0.049
11,NGYELYTDQGGQLVVCDESS,-2.07 ± 1.6
12,RSCGMTVGACSYVACVSYCT,6.02 ± 0.066
13,VLIINFLPVWWKTYLSMMIR,-0.256 ± 0.45
14,KYWGS,inactive
15,TVTDYKTYASLLFGTKTYAI,2.17 ± 0.47
16,NCRMGR,-0.016 ± 1.7
17,NGTTLVAVSYELPLSGVLSK,-0.798 ± 0.57
18,NDIPLSIRSHS,0.269 ± 0.37
19,DYTDMYTC,0.571 ± 0.5
20,WLVTDFVCHLITNTIYTLLL,inactive
21,IIDPDREYTVSN,-0.236 ± 0.95
22,EDSMNNL,-0.127 ± 0.84
23,SNPYVWDVPLSRLWFVSWEL,0.068 ± 0.65
24,FMSYD,0.362 ± 0.79
25,MQINGRESDCMWNNMNARDW,-0.108 ± 0.27
26,TLCERGPPMMYCKC,-0.526 ± 0.45

row,Substance,amyloid nucleation score
1,PAPPAQHIYVQRVYSFCQRG,-0.161 ± 0.9
2,NLLWCIVGTKPWKVLTTVNY,-0.28 ± 0.38
3,FLATYLMEVYMMDSWNF,-1.65 ± 1.4
4,DVTLMCYRQCLDMDMPIDLG,0.733 ± 0.32
5,VEMNFSFVGR,2.62 ± 0.23
6,SYSINLPLLPRCN,1.02 ± 0.57
7,FTDTICCIVMQFKPKRSGSS,4.87 ± 0.088
8,MKVRISEILEILKVSFKNFP,-1.21 ± 1.4
9,ECMRTRFMGNYNGPGISILY,inactive
10,PPLAYWVYPMVRTLFEGRVP,0.754 ± 0.45
11,VRGPGDGFWLEDGTGSHSYR,-0.078 ± 0.42
12,GRMGVSSWAGSQRVLIGENL,1.47 ± 0.3
13,APRAAN,-0.126 ± 0.41
14,TLSLNYRFNLKERFLVSGLI,-0.733 ± 0.38
15,DRLMFRYSIRRIRFVSESSP,1.41 ± 0.43
16,SKMILEV,inactive
17,CYVHEFMDEPSRSNGDGVWC,-0.512 ± 1.2
18,VFVVN,-0.557 ± 0.55
19,LPTHHCGLNVSSDGSNSELR,0.068 ± 0.46
20,GKFVFWWVRSVYDQMAVPGM,-0.546 ± 1.1
21,SSSYDY,-0.545 ± 0.28
22,AGYFCL,-0.449 ± 0.47
23,LEFGSSSGAIVMRGEDPCQP,0.649 ± 0.52
24,KAEVRVRARELAEGMGARGR,0.693 ± 0.72
25,GNGVLAVTVSFAGTSLSLRF,-0.047 ± 1.4
26,VSFILGSNCWAYKTTPMGFL,0.881 ± 0.39

row,Substance,amyloid nucleation score
1,SIWSGMLTGCFRLRSITWHN,0.908 ± 0.24
2,SYIALIELFLFDSRRGHESV,0.078 ± 0.35
3,TLYLPGLKPTRHECMDLHQG,inactive
4,LCFYDKYGPQYL,-0.59 ± 0.54
5,LTRSRGVSRLYIVRGVTDVW,0.076 ± 0.43
6,CTSPLVLIHKYYYVMVAVHS,0.821 ± 0.55
7,FGWGTLIGGLWTDNEQSLFT,-0.375 ± 0.49
8,NDYEELIMYFKEDVF,1.76 ± 0.5
9,VTSDLLD,0.283 ± 0.4
10,DFVETEFRLRRD,inactive
11,SNNVFMAVNSSQRIQQFMLA,1.03 ± 0.14
12,LWCCMTLTIASNDFLNIRCM,1.31 ± 0.15
13,YVRVRSIDVLQQKRSLFVRD,0.595 ± 0.97
14,SYLFRSRRIRYFRFMHN,3.17 ± 0.12
15,WYRVR,-0.421 ± 1.1
16,KTCYLQ,-0.284 ± 1.1
17,GASFVGTGKWVLTGWKTRRF,0.124 ± 0.97
18,IVGLQAVENIRNSCICLFMK,4.5 ± 0.065
19,LFATYLAFKFY,-0.356 ± 1
20,SAVQFG,-0.539 ± 0.54
21,KVKANILVFLTKLSMRPTKP,1.86 ± 0.29
22,SVPSVDAIMVGTWCYRCW,-0.28 ± 0.68
23,HLWRVRLV,0.01 ± 0.61
24,DLVCDFYVGLV,2.42 ± 0.085
25,VDQVQDNLKFEIGKYSYWYS,0.128 ± 0.27
26,YYYHVVWAQ,inactive

row,Substance,amyloid nucleation score
1,GSFFTKDSDTP,0.373 ± 0.46
2,RIWDCRYCKG,-0.184 ± 0.29
3,SYDNLRSRREGPEVVGRRAP,0.569 ± 0.74
4,LGSAAISLIVLFLG,2.64 ± 0.27
5,MTRWTGRSLTLMRLQVVLRP,-0.413 ± 0.62
6,LPCMGKLIYVCRSRLEREQS,0.498 ± 0.62
7,NICTLYPT,0.236 ± 1.1
8,YVDSSI,-0.08 ± 0.97
9,NFDYHTTTVGMELWSLGFSS,-0.585 ± 0.51
10,AVRHLPAPRHSMCLIWYCNC,0.156 ± 0.37
11,YTHDIRSVGGLQESGLGVWV,-0.094 ± 1.1
12,ISNVWNCGKFRSLGLFVTGQ,0.247 ± 0.31
13,TRNSDNVWKFEGVFHNLETW,0.43 ± 0.48
14,IWFLHHEVKF,0.603 ± 0.58
15,INTYWAGCIFCRMFGESRLK,7.253 ± 0.069
16,PLGGLGYV,0.543 ± 0.73
17,SSIGVVKGCIVLWLSMWNQR,4.32 ± 0.066
18,SALWRNFSALRSNWK,-0.325 ± 0.34
19,GTSRPVDWGLRRLS,1.37 ± 0.62
20,FPILVCVLKVLDVVLSDRVL,inactive
21,VNVLRTII,0.255 ± 0.27
22,YVWAAIGVRLYSRHK,-0.002 ± 1.4
23,WFRSGDNLRIM,1.65 ± 0.55
24,HGCKYAKGASDLYDIMCFCW,0.602 ± 0.38
25,RGFCTGNDVF,inactive
26,LMLGCGCECHVSSVSQKENM,0.301 ± 1.1

row,Substance,amyloid nucleation score
1,HVHVTACCRLM,7.44 ± 0.077
2,ACFEFKLGTFRLGAALNYPG,1.03 ± 0.31
3,RFVNKGGT,-0.325 ± 0.69
4,GVMPNCKKNLHEPALERFNT,-0.413 ± 0.61
5,CSSVAS,0.113 ± 0.31
6,TVRGGLY,-1.04 ± 0.62
7,NKVLCFK,inactive
8,KGGPRPQMC,-0.244 ± 0.27
9,FFFNCMRWSCMKVDHTGFVG,-0.255 ± 0.47
10,RHVNEQDILREQFLLMDFRK,0.753 ± 0.72
11,SSTKG,0.956 ± 0.72
12,HWYVTVCLVSMCQVGKGKDN,3.5 ± 0.087
13,FCNWAL,-0.18 ± 0.5
14,RVLIRYQV,0.345 ± 0.58
15,TVDVPLAASSNKYKFMFYCE,3.92 ± 0.098
16,NVSFWFYPLSAFSRPFFGLH,2.74 ± 0.28
17,LSIFMTITAVESPWVTETVF,-0.803 ± 0.4
18,NLFVSYSTDNSSTFMWDSVR,4.44 ± 0.058
19,YSYSGVRMVVILNWHGKWWC,4.87 ± 0.096
20,LFADYILCTCAGCGTGAWEM,-0.092 ± 1.1
21,RSSLVLTFELFRFGMYHQEM,1.28 ± 0.15
22,VDSLITRSWVDHHNKYNHGI,0.635 ± 0.64
23,GTATLSHTCKHTPLRDTRLV,-0.16 ± 0.32
24,EGPMLVCVLVVSTTGIGRGC,1.58 ± 0.59
25,WSVVLDFTVDLVHFGPVGRC,0.242 ± 0.36
26,SYHRSSYYGLVNRMAFLVF,2.94 ± 0.11

row,Substance,amyloid nucleation score
1,DHLYLMV,1.04 ± 0.72
2,DGFMCFLYKLASQT,0.158 ± 0.78
3,VALDSSLHTSVYRIVSLSIG,-0.159 ± 0.52
4,CVSCVSGILFEMCPSSFPNQ,-0.578 ± 0.9
5,ITDVMCMGGSTCFGNSGYTN,0.108 ± 0.56
6,YRTVSDTVAY,1.42 ± 0.79
7,ITETSSSETMLLVVRTWEVW,0.332 ± 0.63
8,NSLMFRPWTLGDF,-0.434 ± 1.7
9,LLKSKRL,0.563 ± 0.43
10,VKRLTRAVFCSFKSRVARSS,0.238 ± 0.58
11,VRYSL,-0.42 ± 0.35
12,CQSKYYIMRACCFMATLWYW,-0.475 ± 0.47
13,QVLDTGVVTDWSVIPFGRSY,0.483 ± 0.65
14,TMRLNQCPLNSFPTLFLYER,-0.602 ± 0.31
15,DTRNPRITALRY,0.431 ± 0.39
16,HSIVDSRLSCICILSS,4.16 ± 0.16
17,VSDYFG,0.229 ± 0.87
18,SIYET,0.524 ± 0.49
19,PCGEKD,0.559 ± 0.9
20,FRVYVSCVLCNDCVVYHRFE,7.602 ± 0.072
21,VKEWGTNSVLGSYTVAQEMS,0.096 ± 0.94
22,GLLNR,0.435 ± 0.19
23,RSFLMPDE,0.307 ± 0.46
24,HVFIIQRMSWGVLRLLVSCR,-0.548 ± 0.52
25,FITYRGSKVRAFLSR,-1.46 ± 0.9
26,SELEIA,inactive

row,Substance,amyloid nucleation score
1,LFLCGGDCYGKFLLCPCLVS,0.144 ± 0.9
2,RDAIYYKICLAQPRSF,-0.465 ± 0.38
3,RGGRWLMATWMMPGNGCLAA,0.708 ± 0.52
4,MWIPFRVYLRAH,inactive
5,TSLYQAYSIYSFRYYIAYMC,0.232 ± 0.68
6,ASLHHKSWTDHADTMTPPRT,inactive
7,SNCFGSSIGNYFRYMFVAYW,1.86 ± 0.47
8,HLVLFYVSLITFARYSFMGV,-0.058 ± 0.3
9,VTSLYQDVT,-2.31 ± 2.4
10,KVYYYKPLIRNPTSFLITIL,0.817 ± 0.47
11,GDLRSSILRLPTWRLWWITT,0.174 ± 0.29
12,WSDHDCIRPNFKYCMIRGRS,0.531 ± 0.3
13,SCPVLHAVPNYCAKALLSLR,-0.794 ± 0.64
14,NSYKCIWMSLGVV,-0.897 ± 0.38
15,KVVRAACCQKMFERVGVHGG,-0.842 ± 0.94
16,FAVSRVEMNLGL,-0.117 ± 0.34
17,TKVKCSLLSFWEKKFLLLRL,1.82 ± 0.34
18,HLRWQMDWCSHNNGMDVMRG,3.71 ± 0.12
19,RYLVVQLRMGLYLFAFKDPD,-0.686 ± 0.42
20,NIAYQTDSGVRLRFVTDSRG,inactive
